The RNAGym collection of RNA variant scans (doi:10.1093/nar/gkz1192)

B1: CPEB3 Ribozyme (parent)
chain: UAACAGGGGGCCACAGCAGAAGCGUUCACGUCGCAGCCCCUGUCAGAUUCUGGUGAAUCUGCGAAUUCUGCUGUAUAUCUC

Variants of: B1
Assay: self-cleavage, relative activity (ratio to wild type); higher = more cleavage; in vitro, sequencing
Summary of the method: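 For each CPEB3 ribozyme variant, relative activity is its cleaved/total read fraction divided by the unmutated ribozyme's. Barcoded error-prone PCR libraries were transcribed by T7 RNA polymerase (5 hours, 37°C) and held in DNase I for 15 min before an EDTA stop, with cleavage occurring throughout. Template-switching reverse transcription and Illumina sequencing were used to read the RNAs. A 5-read minimum applied, and results are the mean of three batches.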

Variant	self-cleavage
UAACAGGGGGCCACAGCAGAAGCGUUCACGUCGCAGCCCCUGACAGAUUCUGGUGUAUCUGCGAAUUCUGCUGUAUAUCUC [U43A A56U]	0.88
UAACAGGGGGCCACAGCAGAAGCGUUCACGUCGCAGCCCCUGACAGAUUCUGGUGGAUCUGCGAAUUCUGCUGUAUAUCUC [U43A A56G]	0.97
UAACAGGGGGCCACAGCAGAAGCGUUCACGUCGCAGCCCCUGACAGAUUCUGGUGCAUCUGCGAAUUCUGCUGUAUAUCUC [U43A A56C]	0.73
UAACAGGGGGCCACAGCAGAAGCGUUCACGUCGCAGCCCCUGACAUAUUCUGGUGAAUCUGCGAAUUCUGCUGUAUAUCUC [U43A G46U]	0.45
UAACAGGGGGCCACAGCAGAAGCGUUCACGUCGCAGCCCCUGACAAAUUCUGGUGAAUCUGCGAAUUCUGCUGUAUAUCUC [U43A G46A]	0.44
UAACAGGGGGCCACAGCAGAAGCGUUCACGUCGCAGCCCCUGACAGAUUCUGGUGAAUCUGCGAAUUCUUCUGUAUAUCUC [U43A G70U]	0.54
UAACAGGGGGCCACAGCAGAAGCGUUCACGUCGCAGCCCCUGACAGAUUCUGGUGAAACUGCGAAUUCUGCUGUAUAUCUC [U43A U58A]	0.72
UAACAGGGGGCCACAGCAGAAGCGUUCACGUCGCAGCCCCUGACAGAUUCUGGUGAAGCUGCGAAUUCUGCUGUAUAUCUC [U43A U58G]	0.31
UAACAGGGGGCCACAGCAGAAGCGUUCACGUCGCAGCCCCUGACAGAUUCUGGUGAACCUGCGAAUUCUGCUGUAUAUCUC [U43A U58C]	0.67
UAACAGGGGGCCACAGCAGAAGCGUUCACGUCGCAGCCCCUGACAGAUUCUGGUGAAUCUGCUAAUUCUGCUGUAUAUCUC [U43A G63U]	1.26
UAACAGGGGGCCACAGCAGAAGCGUUCACGUCGCAGCCCCUGACAGAUUCUGGUGAAUCUGCAAAUUCUGCUGUAUAUCUC [U43A G63A]	1.13
UAACAGGGGGCCACAGCAGAAGCGUUCACGUCGCAGCCCCUGACAGAUUCUGGUGAAUCUCCGAAUUCUGCUGUAUAUCUC [U43A G61C]	0.36
UAACAGGGGGCCACAGCAGAAGCGUUCACGUCGCAGCCCCUGACAGAUUCUGGUGAAUCUACGAAUUCUGCUGUAUAUCUC [U43A G61A]	0.97
UAACAGGGGGCCACAGCAGAAGCGUUCACGUCGCAGCCCCUGACAGAUUAUGGUGAAUCUGCGAAUUCUGCUGUAUAUCUC [U43A C50A]	1.07
UAACAGGGGGCCACAGCAGAAGCGUUCACGUCGCAGCCCCUUUCAGAUUCUGGUGAAUCUGCGAAUUCUGCUGUAUAUCCC [G42U U80C]	0.51
UAACAGGGGGCCACAGCAGAAGCGUUCACGUCGCAGCCCCUGACAGAUUCUGGUGAAUCUGCGAACUCUGCUGUAUAUCUC [U43A U66C]	0.53
UAACAGGGGGCCACAGCAGAAGCGUUCACGUCGCAGCCCCUGACAGAUUCUGGUGAAUCUGCGAAAUCUGCUGUAUAUCUC [U43A U66A]	0.69
UAACAGGGGGCCACAGCAGAAGCGUUCACGUCGCAGCCCCUGACAGAUUCUGGUGAAUGUGCGAAUUCUGCUGUAUAUCUC [U43A C59G]	0.41
UAACAGGGGGCCACAGCAGAAGCGUUCACGUCGCAGCCCCUUUCAGAUUCUGGUGAAUCUGCGAAUUCUGCUGUACAUCUC [G42U U76C]	0.93
UAACAGGGGGCCACAGCAGAAGCGUUCACGUCGCAGCCCCUGACAGAUUCUGGUGAAUCUGCGAAUUCUGCUAUAUAUCUC [U43A G73A]	1.28
UAACAGGGGGCCACAGCAGAAGCGUUCACGUCGCAGCCCCUGACAGAUUCUGGUGAAUCUGCGAAUUCUGCUUUAUAUCUC [U43A G73U]	1.26
UAACAGGGGGCCACAGCAGAAGCGUUCACGUCGCAGCCCCUGACAGAUUCUGGUGAAUCUGCGAAUUUUGCUGUAUAUCUC [U43A C68U]	1.15
UAACAGGGGGCCACAGCAGAAGCGUUCACGUCGCAGCCCCUGACAGAUUCUGGUGAAUCUGCGAAUUCUGUUGUAUAUCUC [U43A C71U]	0.49

Variant	self-cleavage
UAACAGGGGGCCACAGCAGAAGCGUUCACGUCGCAGCCCCUGACCGAUUCUGGUGAAUCUGCGAAUUCUGCUGUAUAUCUC [U43A A45C]	0.39
UAACAGGGGGCCACAGCAGAAGCGUUCACGUCGCAGCCCCUGACGGAUUCUGGUGAAUCUGCGAAUUCUGCUGUAUAUCUC [U43A A45G]	0.75
UAACAGGGGGCCACAGCAGAAGCGUUCACGUCGCAGCCCCUGACUGAUUCUGGUGAAUCUGCGAAUUCUGCUGUAUAUCUC [U43A A45U]	0.82
UAACAGGGGGCCACAGCAGAAGCGUUCACGUCGCAGCCCCUGACAGAUUCUGGAGAAUCUGCGAAUUCUGCUGUAUAUCUC [U43A U54A]	1.25
UAACAGGGGGCCACAGCAGAAGCGUUCACGUCGCAGCCCCUGACAGAUUCUGGCGAAUCUGCGAAUUCUGCUGUAUAUCUC [U43A U54C]	1.19
UAACAGGGGGCCACAGCAGAAGCGUUCACGUCGCAGCCCCUGACAGAUUCGGGUGAAUCUGCGAAUUCUGCUGUAUAUCUC [U43A U51G]	1.15
UAACAGGGGGCCACAGCAGAAGCGUUCACGUCGCAGCCCCUGACAGAUUCCGGUGAAUCUGCGAAUUCUGCUGUAUAUCUC [U43A U51C]	0.88
UAACAGGGGGCCACAGCAGAAGCGUUCACGUCGCAGCCCCUGACAGAUUCAGGUGAAUCUGCGAAUUCUGCUGUAUAUCUC [U43A U51A]	0.97
UAACAGGGGGCCACAGCAGAAGCGUUCACGUCGCAGCCCCUUUCAGAUUCUGGUGAAUCUGCGAAGUCUGCUGUAUAUCUC [G42U U66G]	0.32
UAACAGGGGGCCACAGCAGAAGCGUUCACGUCGCAGCCCCUUUCAGAUUCUGGUGAAUCUGCGAACUCUGCUGUAUAUCUC [G42U U66C]	0.48
UAACAGGGGGCCACAGCAGAAGCGUUCACGUCGCAGCCCCUUUCAGAUUCUGGUGAAUCUGCGAAAUCUGCUGUAUAUCUC [G42U U66A]	0.26
UAACAGGGGGCCACAGCAGAAGCGUUCACGUCGCAGCCCCUGAUAGAUUCUGGUGAAUCUGCGAAUUCUGCUGUAUAUCUC [U43A C44U]	1.11
UAACAGGGGGCCACAGCAGAAGCGUUCACGUCGCAGCCCCUGACAGAUACUGGUGAAUCUGCGAAUUCUGCUGUAUAUCUC [U43A U49A]	0.8
UAACAGGGGGCCACAGCAGAAGCGUUCACGUCGCAGCCCCUGACAGAUCCUGGUGAAUCUGCGAAUUCUGCUGUAUAUCUC [U43A U49C]	0.53
UAACAGGGGGCCACAGCAGAAGCGUUCACGUCGCAGCCCCUGACAGAUGCUGGUGAAUCUGCGAAUUCUGCUGUAUAUCUC [U43A U49G]	0.52
UAACAGGGGGCCACAGCAGAAGCGUUCACGUCGCAGCCCCUUUCAGAUUCUGGUGAAUCUGCGAAUUCUGCUGCAUAUCUC [G42U U74C]	0.35
UAACAGGGGGCCACAGCAGAAGCGUUCACGUCGCAGCCCCUGACAGAUUCUGAUGAAUCUGCGAAUUCUGCUGUAUAUCUC [U43A G53A]	1.2
UAACAGGGGGCCACAGCAGAAGCGUUCACGUCGCAGCCCCUGACAGAUUCUGGUGAAUCUGCGAAUUCUGCUGUAUAUCUC [U43A]	1.17
UAACAGGGGGCCACAGCAGAAGCGUUCACGUCGCAGCCCCUGACAGAUUCUUGUGAAUCUGCGAAUUCUGCUGUAUAUCUC [U43A G52U]	1.26
UAACAGGGGGCCACAGCAGAAGCGUUCACGUCGCAGCCCCUGACAGAUUCUAGUGAAUCUGCGAAUUCUGCUGUAUAUCUC [U43A G52A]	1.23
UAACAGGGGGCCACAGCAGAAGCGUUCACGUCGCAGCCCCUGACAGAUUCUCGUGAAUCUGCGAAUUCUGCUGUAUAUCUC [U43A G52C]	1.19
UAACAGGGGGCCACAGCAGAAGCGUUCACGUCGCAGCCCCUGACAGAUUCUGGUGAAUCAGCGAAUUCUGCUGUAUAUCUC [U43A U60A]	0.53
UAACAGGGGGCCACAGCAGAAGCGUUCACGUCGCAGCCCCUGACAGAUUCUGGUGAAUCCGCGAAUUCUGCUGUAUAUCUC [U43A U60C]	0.54

Variant	self-cleavage
UAACAGGGGGCCACAGCAGAAGCGUUCACGUCGCAGCCCCUGACAGAUUCUGGUGAGUCUGCGAAUUCUGCUGUAUAUCUC [U43A A57G]	1.05
UAACAGGGGGCCACAGCAGAAGCGUUCACGUCGCAGCCCCUGACAGAUUCUGGUGACUCUGCGAAUUCUGCUGUAUAUCUC [U43A A57C]	0.47
UAACAGGGGGCCACAGCAGAAGCGUUCACGUCGCAGCCCCUGACAGAUUCUGGUGAUUCUGCGAAUUCUGCUGUAUAUCUC [U43A A57U]	1.11
UAACAGGGGGCCACAGCAGAAGCGUUCACGUCGCAGCCCCUGACAGAUUCUGGUGAAUCUGCGAAUUCUGCUGUAUUUCUC [U43A A77U]	1.23
UAACAGGGGGCCACAGCAGAAGCGUUCACGUCGCAGCCCCUGACAGAUUCUGGUGAAUCUGCGAAUUCUGCUGUAUCUCUC [U43A A77C]	1.18
UAACAGGGGGCCACAGCAGAAGCGUUCACGUCGCAGCCCCUGACAGAUUCUGGUGAAUCUGCGAAUUCUGCUGUAUGUCUC [U43A A77G]	1.2
UAACAGGGGGCCACAGCAGAAGCGUUCACGUCGCAGCCCCUGACAGAUUCUGGUGAAUCUGCGAAUUCUGCUGUGUAUCUC [U43A A75G]	1.01
UAACAGGGGGCCACAGCAGAAGCGUUCACGUCGCAGCCCCUGACAGAUUCUGGUGAAUCUGCGAAUUCUGCUGUUUAUCUC [U43A A75U]	1.19
UAACAGGGGGCCACAGCAGAAGCGUUCACGUCGCAGCCCCUGACAGAUUCUGGUGAAUCUGCGAAUUCUGCUGUCUAUCUC [U43A A75C]	1.36
UAACAGGGGGCCACAGCAGAAGCGUUCACGUCGCAGCCCCUGACAGUUUCUGGUGAAUCUGCGAAUUCUGCUGUAUAUCUC [U43A A47U]	0.63
UAACAGGGGGCCACAGCAGAAGCGUUCACGUCGCAGCCCCUGACAGGUUCUGGUGAAUCUGCGAAUUCUGCUGUAUAUCUC [U43A A47G]	1.06
UAACAGGGGGCCACAGCAGAAGCGUUCACGUCGCAGCCCCUGACAGAUUCUGGUGAAUCUGUGAAUUCUGCUGUAUAUCUC [U43A C62U]	0.39
UAACAGGGGGCCACAGCAGAAGCGUUCACGUCGCAGCCCCUGACAGACUCUGGUGAAUCUGCGAAUUCUGCUGUAUAUCUC [U43A U48C]	0.71
UAACAGGGGGCCACAGCAGAAGCGUUCACGUCGCAGCCCCUGACAGAUUCUGGUAAAUCUGCGAAUUCUGCUGUAUAUCUC [U43A G55A]	0.77
UAACAGGGGGCCACAGCAGAAGCGUUCACGUCGCAGCCCCUUUCAGAUUCUGGUGAAUCCGCGAAUUCUGCUGUAUAUCUC [G42U U60C]	0.17
UAACAGGGGGCCACAGCAGAAGCGUUCACGUCGCAGCCCCUUUCAGAUUCUGGUGAAUCUGCGAAUUCGGCUGUAUAUCUC [G42U U69G]	0.14
UAACAGGGGGCCACAGCAGAAGCGUUCACGUCGCAGCCCCUGACAGAUUCUGGUGAAUCUGCGAAUUCUGCUGUAUAUAUC [U43A C79A]	1.22
UAACAGGGGGCCACAGCAGAAGCGUUCACGUCGCAGCCCCUUUCAGAUUCUGGUGAAUCUGCGAAUCCUGCUGUAUAUCUC [G42U U67C]	0.08
UAACAGGGGGCCACAGCAGAAGCGUUCACGUCGCAGCCCCUGACAGAUUCUGGUGAAUCUGCGGAUUCUGCUGUAUAUCUC [U43A A64G]	1.04
UAACAGGGGGCCACAGCAGAAGCGUUCACGUCGCAGCCCCUGACAGAUUCUGGUGAAUCUGCGUAUUCUGCUGUAUAUCUC [U43A A64U]	0.51
UAACAGGGGGCCACAGCAGAAGCGUUCACGUCGCAGCCCCUGACAGAUUCUGGUGAAUCUGCGAUUUCUGCUGUAUAUCUC [U43A A65U]	0.57
UAACAGGGGGCCACAGCAGAAGCGUUCACGUCGCAGCCCCUGACAGAUUCUGGUGAAUCUGCGAGUUCUGCUGUAUAUCUC [U43A A65G]	0.93
